In publication PMC4048344 (Channels, 2014):

Legend:
[1] = target: MBP-tagged SK2-ARK C-terminus (aa 368-553) (chicken); experiment: pull-down
[2] = target: chicken SK2-ARK splice variant, full length, expressed in Xenopus oocytes (chicken); experiment: co-IP
[3] = target: MBP-tagged SK2 C-terminus (aa 368-553) (chicken, UniProt Q9PTS9 368-553); experiment: pull-down
[4] = target: chicken SK2 (isoform lacking the ARK insert), full length, expressed in Xenopus oocytes (chicken, UniProt Q9PTS9 1-553); experiment: co-IP

GST-tagged full-length human α-actinin-1 (from UniProt P12814-3 1-914) (natural protein)
bound α-actinin-1, percent of that bound to SK2 [1]: 81.2 % of SK2
fold increase in binding with 1 mM CaCl2 against 5 mM BAPTA [1]: 6.8 fold

HA-tagged α9/10-nicotinic acetylcholine receptor (chicken α9 and α10-HA subunits) (from UniProt Q9PTS8 28-484; Q9I8C7 27-452) (complex)
co-precipitated α9/10-nAChRs, percent of that with SK2 [2]: 173 % of SK2

calmodulin, purified from bovine brain (from UniProt P62157 1-149) (natural protein)
co-precipitated CaM with 5 mM BAPTA, percent of that with SK2 [1]: 142 % of SK2

B1: GST-tagged full-length human α-actinin-1 (natural protein, UniProt P12814-3 1-914, looked up)
chain: MDHYDSQQTNDYMQPEEDWDRDLLLDPAWEKQQRKTFTAWCNSHLRKAGTQIENIEEDFRDGLKLMLLLEVISGERLAKPERGKMRVHKISNVNKALDFIASKGVKLVSIGAEEIVDGNVKMTLGMIWTIILRFAIQDISVEETSAKEGLLLWCQRKTAPYKNVNIQNFHISWKDGLGFCALIHRHRPELIDYGKLRKDDPLTNLNTAFDVAEKYLDIPKMLDAEDIVGTARPDEKAIMTYVSSFYHAFSGAQKAETAANRICKVLAVNQENEQLMEDYEKLASDLLEWIRRTIPWLENRVPENTMHAMQQKLEDFRDYRRLHKPPKVQEKCQLEINFNTLQTKLRLSNRPAFMPSEGRMVSDINNAWGCLEQVEKGYEEWLLNEIRRLERLDHLAEKFRQKASIHEAWTDGKEAMLRQKDYETATLSEIKALLKKHEAFESDLAAHQDRVEQIAAIAQELNELDYYDSPSVNARCQKICDQWDNLGALTQKRREALERTEKLLETIDQLYLEYAKRAAPFNNWMEGAMEDLQDTFIVHTIEEIQGLTTAHEQFKATLPDADKERLAILGIHNEVSKIVQTYHVNMAGTNPYTTITPQEINGKWDHVRQLVPRRDQALTEEHARQQHNERLRKQFGAQANVIGPWIQTKMEEIGRISIEMHGTLEDQLSHLRQYEKSIVNYKPKIDQLEGDHQLIQEALIFDNKHTNYTMEHIRVGWEQLLTTIARTINEVENQILTRDAKGISQEQMNEFRASFNHFDRDHSGTLGPEEFKACLISLGYDIGNDPQKKTGMMDTDDFRACLISMGYNMGEAEFARIMSIVDPNRLGVVTFQAFIDFMSRETADTDTADQVMASFKILAGDKNYITMDELRRELPPDQAEYCIARMAPYTGPDSVPGALDYMSFSTALYGESDL
fold increase in binding with 1 mM CaCl2 against 5 mM BAPTA [3]: 3.2 fold

B2: HA-tagged α9/10-nicotinic acetylcholine receptor (chicken α9 and α10-HA subunits) (complex)
chain 1: AKGKYAQMLFNELFEDYSNALRPVEDTDKVLNVTLQITLSQIKDMDERNQILTAYLWIRQSWYDAYLKWDKDKYDGLDSIRIPSNLVWRPDIVLYNKADDDFSEPVNTNVVLRYDGKITWDAPAITKSSCVVDVSYFPFDSQQCNLTFGSWTYNGNQVDIINSLDSGDLSDFVEDVEWEIHGMPAVKNVITYGCCSEPYPDVTFTLILKRKSSFYIFNLLLPCILISFLAPLGFYLPADSGEKVSLGVTVLLALTVFQLMVAEIMPPSENVPLIGKYYIATMTMITASTALTIIIMNVHHCGSEAKPVPQWARVVILDYMSKIFFVYDVGENCTSPRREKEQEHRLEGGDMCRGGDGKSHLSSRNDDSDLKENLNGNWNKSFGVHGENVRENVNCCSCYKMLIKNIEYIANCVRDHKANRAKGIEWKKVAKVMDRFFMWIFFIMVFFMSVLIIGKAA
chain 2: AQGRLAHKLLHDLFANYSSALRPAEDTERALNVTLQVTLSQIIDMDERNQVLTSYLWVRQAWLDAHLAWDKDAYGGIDSIRIPSSYVWRPDIVLYNNADERFGGSMETNVVLRSDGHIMWDSPAITKSSCKVDVSYFPFDGQQCRLTFGSWTYNGNQIDLRNLLDTGDLTDFVENVEWEVLGMPATRNVVTYGCCSEPYPDVTYTLLLRRRASFYIFNLLLPCVMISFLAPLGFYLPADSGEKVSLGVTVLLALTVFQLLVAESMPPSESVPLIGKYYIATMTMITASTALTIFIMNIHHCGPGARPVPPWARRLILHHLARALCVCEVGESCGRPQREGTGGMGPRDPPGEGVEPGLCPRSRCLCHHHAVLSSVGYIAGVFRRHRTAQRRAAEWKKVAKVMDRFFMWVFFLMVFLMSVLVIGKAA
fold change of co-precipitation after BAPTA-AM [4]: 2 fold
